Measurements taken from patent EP4721754A1 (Hangzhou Sciwind Biosciences Co., Ltd., dated 2026).
Numbered stars: 1 amine (or outer) side, 2 acyl side, 3 side chain; on linkers, the order of the positions; unused ones are H or OH. Bridge positions count the residues as written; N and C are the ends. Square brackets hold non-standard residues; d marks the D form. Primed or numbered codes have the meaning given here. Ends that are not written are not given here. * marks the point of attachment. C22 diacid′ = docosanedioic acid (C22 diacid) acyl; C20 diacid = O=C(O)CCCCCCCCCCCCCCCCCCC(=O)*; C18 diacid = O=C(O)CCCCCCCCCCCCCCCCC(=O)*; C16 diacid = O=C(O)CCCCCCCCCCCCCCC(=O)*; γGlu = O=C(O)[C@H](CCC(=O)[*:2])N[*:1]; βAsp = O=C(O)[C@H](CC(=O)[*:2])N[*:1]; Hyp = O=C(O)[C@@H]1C[C@@H](O)CN1; AEEA = NCCOCCOCC(=O)O

T1: amylin receptor (hAMY3R) (human, UniProt P30988 25-474; O60896 24-148)
T1 sequence (looked up) 1: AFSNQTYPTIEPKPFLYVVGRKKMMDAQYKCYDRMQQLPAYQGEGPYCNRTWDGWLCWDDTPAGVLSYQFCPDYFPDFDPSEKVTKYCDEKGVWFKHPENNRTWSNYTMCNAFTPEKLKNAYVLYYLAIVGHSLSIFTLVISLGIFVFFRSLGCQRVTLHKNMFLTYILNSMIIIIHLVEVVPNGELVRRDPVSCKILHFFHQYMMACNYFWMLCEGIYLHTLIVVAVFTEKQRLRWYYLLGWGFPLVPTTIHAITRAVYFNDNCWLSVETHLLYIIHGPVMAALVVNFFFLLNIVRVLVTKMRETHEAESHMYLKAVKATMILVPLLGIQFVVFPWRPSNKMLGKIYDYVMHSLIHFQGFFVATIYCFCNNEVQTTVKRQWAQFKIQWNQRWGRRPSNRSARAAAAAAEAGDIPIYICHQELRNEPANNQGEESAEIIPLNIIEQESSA
T1 sequence (looked up) 2: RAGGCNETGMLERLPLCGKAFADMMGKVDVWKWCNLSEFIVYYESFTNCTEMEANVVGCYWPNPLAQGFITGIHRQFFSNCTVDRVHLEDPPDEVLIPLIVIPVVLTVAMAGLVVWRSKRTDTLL

T2: calcitonin receptor (hCTR) (human, UniProt P30988 25-474)
T2 sequence (looked up): T1 sequence (looked up) 1

B1: N3 (peptide)
peptide: {C18 diacid-βAsp-AEEA-AEEA}-KCNTATCATQRLADFLRHSSNNLKPILPPTNVGSNT[Hyp]-NH2
modifications: disulfide 2-7 (inferred); ends not checked
B2: M25 (peptide)
peptide: ASQLSTAVLGRLSDELHRLQDYPRTDVGSGSP
modifications: not fully specified; N terminus: C20 diacid + βAsp+2 AEEAs
B3: M12 (peptide)
peptide: B2 peptide
modifications: not fully specified; N terminus: C20 diacid + βAsp
B4: M29 (peptide)
peptide: B2 peptide
modifications: not fully specified; N terminus: C20 diacid + Inp+2 AEEAs
B5: M10 (peptide)
peptide: B2 peptide
modifications: not fully specified; N terminus: C20 diacid + αGlu
B6: M23 (peptide)
peptide: B2 peptide
modifications: not fully specified; N terminus: C20 diacid + αGlu+2 AEEAs
B7: M27 (peptide)
peptide: B2 peptide
modifications: not fully specified; N terminus: C20 diacid + Trx+2 AEEAs
B8: M14 (peptide)
peptide: B2 peptide
modifications: not fully specified; N terminus: C20 diacid + Trx
B9: M28 (peptide)
peptide: B2 peptide
modifications: N terminus: C18 diacid + Trx+2 AEEAs
B10: M15 (peptide)
peptide: B2 peptide
modifications: N terminus: C18 diacid + Trx
B11: M21 (peptide)
peptide: B2 peptide
modifications: not fully specified; N terminus: C20 diacid + yGlu+8 AEEAs
B12: M9 (peptide)
peptide: {C16 diacid-γGlu}-ASQLSTAVLGRLSDELHRLQDYPRTDVGSGSP-NH2
modifications: ends and bridges not checked
B13: M13 (peptide)
peptide: {C18 diacid}-DASQLSTAVLGRLSDELHRLQDYPRTDVGSGSP-NH2
B14: N2 (peptide)
peptide: {C20 diacid-βAsp-AEEA-AEEA}-KCNTATCATQRLADFLRHSSNNLKPILPPTNVGSNT[Hyp]-NH2
modifications: disulfide 2-7 (inferred); ends not checked
B15: N1 (peptide)
peptide: {C20 diacid-AEEA-AEEA}-KCNTATCATQRLADFLRHSSNNLKPILPPTNVGSNT[Hyp]-NH2
modifications: disulfide 2-7 (inferred); ends not checked
B16: M8 (peptide)
peptide: {C18 diacid-γGlu}-ASQLSTAVLGRLSDELHRLQDYPRTDVGSGSP-NH2
modifications: ends and bridges not checked
B17: M22 (peptide)
peptide: {C18 diacid-γGlu-AEEA-AEEA}-ASQLSTAVLGRLSDELHRLQDYPRTDVGSGSP-NH2
B18: M26 (peptide)
peptide: {C18 diacid}-D[AEEA][AEEA]ASQLSTAVLGRLSDELHRLQDYPRTDVGSGSP-NH2
B19: M11 (peptide)
peptide: {C18 diacid}-EASQLSTAVLGRLSDELHRLQDYPRTDVGSGSP-NH2
B20: M7 (peptide)
peptide: {C22 diacid′-γGlu}-ASQLSTAVLGRLSDELHRLQDYPRTDVGSGSP-NH2
modifications: ends and bridges not checked
B21: M5 (peptide)
peptide: ASQLSTAVLGRLSQELHRLQDYPRTDVGSGSP-NH2
B22: M18 (peptide)
peptide: B2 peptide
modifications: not fully specified; N terminus: C20 diacid + yGlu+2 AEEAs

target: T1, amylin receptor (hAMY3R); test: cell-based or functional assay

Going from B1 to B14, the “EC50, CRE-luciferase reporter in amylin receptor/CRE-luc CHO cells (incubation presumably 4 h, per paragraph 38)” value rises from 0.001 nM to 0.009 nM (9-fold).

B2 and B3 are the same in “EC50, CRE-luciferase reporter in amylin receptor/CRE-luc CHO cells, 24 h” value: 0.017 nM for the first, 0.017 nM for the second.

Compared with B4, B5 is 12-fold higher in “EC50, CRE-luciferase reporter in amylin receptor/CRE-luc CHO cells, 24 h” value: 0.006 nM for the first, 0.069 nM for the second.

First: B6
Second: B7
The “EC50, CRE-luciferase reporter in amylin receptor/CRE-luc CHO cells, 24 h” value of the first is 4.2-fold higher: 0.017 nM for the first, 0.004 nM for the second.

First: B8
Second: B9
The “EC50, CRE-luciferase reporter in amylin receptor/CRE-luc CHO cells, 24 h” value of the first is 230-fold higher: 0.456 nM for the first, 0.002 nM for the second.

First: B10
Second: B11
The “EC50, CRE-luciferase reporter in amylin receptor/CRE-luc CHO cells, 24 h” value of the first is 2.7-fold higher: 0.119 nM for the first, 0.044 nM for the second.

First: B12
Second: B13
The “EC50, CRE-luciferase reporter in amylin receptor/CRE-luc CHO cells, 24 h” value of the first is 8-fold lower: 0.002 nM for the first, 0.016 nM for the second.

B15 and B16 are the same in “EC50, CRE-luciferase reporter in amylin receptor/CRE-luc CHO cells, 24 h” value: 0.016 nM for the first, 0.016 nM for the second.

Compared with B17, B18 is 1.9-fold lower in “EC50, CRE-luciferase reporter in amylin receptor/CRE-luc CHO cells, 24 h” value: 0.015 nM for the first, 0.008 nM for the second.

B19 and B20 are within 1.5-fold of each other in “EC50, CRE-luciferase reporter in amylin receptor/CRE-luc CHO cells, 24 h” value: 0.016 nM for the first, 0.022 nM for the second.

B21 was tested, and the “EC50, CRE-luciferase reporter in amylin receptor/CRE-luc CHO cells, 24 h” value was 0.033 nM.

For B14, the “EC50, CRE-luciferase reporter in amylin receptor/CRE-luc CHO cells (incubation presumably 24 h)” value was 0.04 nM.

target: T2, calcitonin receptor (hCTR); test: cell-based or functional assay

Compared with B2, B22 is 2-fold lower in “EC50, CRE-luciferase reporter in calcitonin receptor/CRE-luc CHO cells, 24 h” value: 0.138 nM for the first, 0.069 nM for the second.

Going from B3 to B8, the “EC50, CRE-luciferase reporter in calcitonin receptor/CRE-luc CHO cells, 24 h” value rises from 0.073 nM to 0.587 nM (8-fold).

Compared with B10, B12 is 3.9-fold lower in “EC50, CRE-luciferase reporter in calcitonin receptor/CRE-luc CHO cells, 24 h” value: 0.469 nM for the first, 0.12 nM for the second.

Compared with B13, B16 is 1.9-fold higher in “EC50, CRE-luciferase reporter in calcitonin receptor/CRE-luc CHO cells, 24 h” value: 0.085 nM for the first, 0.165 nM for the second.

Going from B18 to B19, the “EC50, CRE-luciferase reporter in calcitonin receptor/CRE-luc CHO cells, 24 h” value rises from 0.024 nM to 0.071 nM (3-fold).

In the case of B20, the “EC50, CRE-luciferase reporter in calcitonin receptor/CRE-luc CHO cells, 24 h” value is reported as 0.194 nM.

target: T1, amylin receptor (hAMY3R); test: cell-based or functional assay; remark: another data set of the same source

Compared with B2, B22 is higher in “Fold change in activity against hAMY3R (benchmark D1)” value: 2.12 fold for the first, 2.25 fold for the second.

First: B3
Second: B4
The “Fold change in activity against hAMY3R (benchmark D1)” value of the first is lower: 2.12 fold for the first, 6 fold for the second.

Going from B7 to B8, the “Fold change in activity against hAMY3R (benchmark D1)” value falls from 9 fold to 0.079 fold.

Going from B9 to B10, the “Fold change in activity against hAMY3R (benchmark D1)” value falls from 18 fold to 0.303 fold.

In the case of B19, the “Fold change in activity against hAMY3R (benchmark D1)” value is reported as 2.25 fold.

B22 was tested, and the “hAMY3R EC50, CRE-luciferase reporter cells” value was 0.016 nM.

target: T2, calcitonin receptor (hCTR); test: cell-based or functional assay; remark: another data set of the same source

Compared with B2, B22 is higher in “Fold change in activity against hCTR (benchmark D1)” value: 0.623 fold for the first, 1.25 fold for the second.

Compared with B3, B4 is lower in “Fold change in activity against hCTR (benchmark D1)” value: 1.18 fold for the first, 0.551 fold for the second.

Going from B7 to B8, the “Fold change in activity against hCTR (benchmark D1)” value falls from 0.161 fold to 0.147 fold.

First: B9
Second: B10
The “Fold change in activity against hCTR (benchmark D1)” value of the first is higher: 0.966 fold for the first, 0.183 fold for the second.

With B19 the “Fold change in activity against hCTR (benchmark D1)” value was 1.21 fold.

First: B4
Second: B7
The “hCTR EC50, CRE-luciferase reporter cells” value of the first is 3.4-fold lower: 0.156 nM for the first, 0.533 nM for the second.

For B9, the “hCTR EC50, CRE-luciferase reporter cells” value was 0.089 nM.
